Target: T1, ϕ29 DNA polymerase, wild type (bacteriophage ϕ29, UniProt P03680 1-575)
T1 construct: DNA polymerase of bacteriophage ϕ29, wild type; 66 kDa; also called viral DNA polymerase
T1 sequence (looked up): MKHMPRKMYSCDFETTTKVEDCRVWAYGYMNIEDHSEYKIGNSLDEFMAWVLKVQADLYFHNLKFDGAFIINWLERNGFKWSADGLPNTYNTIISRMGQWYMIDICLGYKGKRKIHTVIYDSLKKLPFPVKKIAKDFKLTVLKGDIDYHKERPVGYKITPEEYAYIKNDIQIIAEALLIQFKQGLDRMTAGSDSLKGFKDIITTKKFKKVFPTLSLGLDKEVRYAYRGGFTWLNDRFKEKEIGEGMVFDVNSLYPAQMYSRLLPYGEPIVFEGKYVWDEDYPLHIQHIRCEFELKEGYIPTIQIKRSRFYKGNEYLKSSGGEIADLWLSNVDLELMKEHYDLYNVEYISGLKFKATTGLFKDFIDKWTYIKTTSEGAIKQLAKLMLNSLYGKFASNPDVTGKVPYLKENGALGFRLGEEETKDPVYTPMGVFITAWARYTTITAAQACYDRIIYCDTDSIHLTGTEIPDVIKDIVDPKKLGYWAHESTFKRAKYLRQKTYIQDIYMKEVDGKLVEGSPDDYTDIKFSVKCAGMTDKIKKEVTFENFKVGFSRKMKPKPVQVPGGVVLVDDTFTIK
Test: co-sedimentation; glycerol gradient sedimentation of DNA polymerase with TP N-terminal mutants (Supplementary Figure S2)
Details: both partners purified

B1: ϕ29 TP mutant K32A/K33A/K34A (natural protein, bacteriophage ϕ29, UniProt P03681 1-266, looked up)
chain: MARSPRIRIKDNDKAEYARLVKNTKAKIARTAAAYGVDLTAEIDIPDLDSFETRAQFNKWKEQASSFTNRANMRYQFEKNAYGVVASKAKIAEIERNTKEVQRLVDEKIKAMKDKEYYAGGKPQGTIEQRIAMTSPAHVTGINRPHDFDFSKVRSYSRLRTLEESMEMRTDPQYYEKKMIQLQLNFIKSVEGSFNSFDAADELIEELKKIPPDDFYELFLRISEISFEEFDSEGNTVENVEGNVYKILSYLEQYRRGDFDLSLKGF
notes: terminal protein (TP) of bacteriophage ϕ29 with K32A, K33A and K34A
- binding result: binds

Reference: PMC4357725 (Nucleic Acids Research, 2015)
